This note sets out measurements from US20250027901A1.

Values joined by “and” are separate entries in the source; they are usually repeats but may differ in a detail not shown here. Equal entries are not always repeated. Where two headings read alike, the source gives them in different places.

Experiment [1] deals with SARS-CoV-2 S1 (Sino Biological 40591-V08B1) (SARS-CoV-2) (UniProt P0DTC2).
Experiment [2] has as its target snoopTag-msfGFP-3C cleavage site-TwinStrep.
Experiment [3] deals with SARS-CoV-2 S1 (Sino Biological 40591-V08B1) (SARS-CoV-2) (UniProt P0DTC2). The source holds these as a separate data set.
Experiment [4] addresses Cysteine terminated spyTag peptide (…). Description: QCMD, nanobody-SpyCatcher coupling to Cys-SpyTag peptide on gold (SpyDirect).
Experiment [5] addresses SARS-CoV-2 S1 (Sino Biological 40591-V08B1) (SARS-CoV-2) (UniProt P0DTC2). Description: OECT sensor, SpyDirect SARS-CoV-1 nanobody gate, 1.2 aM spike (FIG. 4C, saliva).
In experiment [6] the target is SARS-CoV-2 Spike-pseudotyped lentivirus (GeneCopoeia CAT. SP101-100) (SARS-CoV-2) (UniProt P0DTC2).
Experiment [7] deals with lysozyme. As to the kind of experiment: OECT sensor, SpyDirect SARS-CoV-1 nanobody gates after 7-day storage, lysozyme.
Experiment [8] concerns the target lysozyme.

Sequence of lysozyme (P00698 19-147): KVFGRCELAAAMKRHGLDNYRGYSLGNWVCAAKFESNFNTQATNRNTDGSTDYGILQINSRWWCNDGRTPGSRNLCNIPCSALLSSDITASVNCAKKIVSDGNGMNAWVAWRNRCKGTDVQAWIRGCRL

With “VHH72-8 aa-spyCatcher-3C cleavage site-His8”, the Density per cm^2 in experiment [1] was 5.2e+12 per cm^2 and 2.3e+12 per cm^2; in experiment [4], 7.8e+12 per cm^2. The gained mass (ng/cm^2) was 290 ng/cm^2 and 659 ng/cm^2 in experiment [1]; less than 1 ng/cm^2 in experiment [2]; 376 ng/cm^2 in experiment [4]. The normalized response (NR) was 20% in experiment [3]; 20% in experiment [5]; 28% in experiment [6]; less than 12% with lysozyme [7]; less than 15% with lysozyme [8].
